Key:
[1] = molecular target: T1, TRBC2 on HPB-ALL cells engineered to express only TRBC2 (human, UniProt A0A5B9 1-178); assay: internalisation of pHrodo red conjugated antibody, flow cytometry, 24 h
T1 construct: whole, on cells; also called HPB-ALL TRBC2; HPB-ALL TRBC2+
Protocol: (§1) Cell uptake of the anti-TRBC1 antibody hJOVI-1 and the anti-TRBC2 antibody KFN was tested on HPB-ALL cells that were engineered to express only TRBC1, only TRBC2, or which were the TRBC was knocked-out (KO). To this aim, the pH-sensitive fluorophore
(§2) Zenon pHrodo iFL red (Thermo Scientific), which has a 560/585 nm spectrum, was used to conjugate hJOVI-1 and KFN in IgG format following the manufacturer's recommendations. The irrelevant anti-HEL antibody was also conjugated for use as control. The conjugated antibodies were incubated with HPB-ALL TRBC1, HPB-ALL TRBC2 and HPB-ALL KO cells for 24 h at 37° C., 5% CO2. Test antibodies hJOVI-1, KFN, and anti-HEL were applied at 5 μg/ml in a 96-well plate with 5×10⁴ cells/well in 100 μl of RPMI 10% FBS. After 24 h, cells were washed, harvested and stained with 1:100 LIVE/DEAD™ Fixable Violet Dead Cell Stain (Thermofisher) for 10 min before being analysed by flow cytometry using a Fortessa flow cytometer (BD).

[2] = molecular target: T2, TRBC1 (T cell receptor beta-chain constant domain 1), interaction partner protein injected in SPR (human, UniProt P01850 1-129, limits assumed); assay: SPR (Biacore T200), antibody captured on anti-human IgG chip, TRBC1 injected, 25 C, 1:1 Langmuir fit
T2 construct: also called TCR beta constant region 1
T2 sequence (P01850 1-129 limits assumed): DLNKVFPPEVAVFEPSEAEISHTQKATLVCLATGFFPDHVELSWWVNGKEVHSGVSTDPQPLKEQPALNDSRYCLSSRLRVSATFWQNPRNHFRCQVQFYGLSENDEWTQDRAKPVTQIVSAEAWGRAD
Protocol: (§3) Surface plasmon resonance (SPR) was carried out on several of antibody variants of hJOVI-1 to ascertain affinity, association and dissociation rates. The sequence details of these variants Mut1 to Mut15 used in the Examples section of the present patent application are included in Tables 1 and 2. These anti-TRBC antibody variants have specificity for either TRBC1 or TRBC2.
(§4) SPR experiments were performed using a Biacore T200 instrument using HBSP1 as the running and dilution buffer (GE Healthcare BioSciences). BIAevaluation software version 2.0 (GE Healthcare) was used for data processing. For determination of the binding kinetics, mouse anti-human IgG (GE Healthcare) was covalently coupled to a CM5 Sensor Chip (GE Healthcare). Anti-TRBC1 or anti-TRBC2 antibodies were captured onto the flow cell, and various concentrations of interaction partner protein (TRBC1 or TRBC2) were injected over the flow cell at a flow rate of […] at a temperature of 25° C. A double reference subtraction was performed using buffer alone. Kinetic rate constants were obtained by curve fitting according to a 1:1 Langmuir binding model.

[3] = molecular target: T3, TRBC1 on HPB-ALL cells engineered to express only TRBC1 (human, UniProt P01850 1-176); assay: internalisation of pHrodo red conjugated antibody, flow cytometry, 24 h
T3 construct: whole, on cells; also called HPB-ALL TRBC1; HPB-ALL TRBC1+
Protocol: as §1, §2

[4] = molecular target: T4, TRBC2 (T cell receptor beta-chain constant domain 2), interaction partner protein injected in SPR (human, UniProt A0A5B9 1-129, limits assumed); assay: SPR (Biacore T200), antibody captured on anti-human IgG chip, TRBC2 injected, 25 C, 1:1 Langmuir fit
T4 construct: the construct is not described; also called TCR beta constant region 2
T4 sequence (A0A5B9 1-129 limits assumed): as the sequence (P01850 1-129 limits assumed) above, with N3K, K4N, E9K, F36Y counted along it
Protocol: as §3, §4

[5] = molecular target: T3, TRBC1 on HPB-ALL cells engineered to …; assay: internalisation (9h), pHrodo green MFI, flow cytometry
[6] = molecular target: T1, TRBC2 on HPB-ALL cells engineered to …; assay: as above
[7] = molecular target: T1, TRBC2 on HPB-ALL cells engineered to …; assay: internalisation of pHrodo green conjugated antibody, flow cytometry

Row | Binder | Kd [2] | koff [2] | kon [2] | further results
1 | hJOVI-1 (humanised JOVI-1 antibody, reference antibody) (antibody, V domains shown, Tested in IgG format and captured by anti-human IgG in SPR; also called aTRBC1; anti-TRBC1 antibody hJOVI-1) VH: QVQLVQSGAEVKKPGASVKVSCKASGYTFTGYVMHWVRQAPGQGLEWMGFINPYNDDIQSNERFRGRVTMTRDTSISTAYMELSRLRSDDTAVYYCARGAGYNFDGAYRFFDFWGQGTMVTVSS VL: DIVMTQSPLSLPVTPGEPASISCRSSQRLVHSNGNTYLHWYLQKPGQSPRLLIYRVSNRFPGVPDRFSGSGSGTDFTLKISRVEAEDVGVYYCSQSTHVPYTFGQGTKLEIK | 2.57 nM | 0.000618 s⁻¹ | 238000 M⁻¹ s⁻¹ | binding result [1]: no binding (tested: 5 µg/ml)
2 | Mut3 (KFN) (antibody, V domains shown, Variant of hJOVI-1; IgG format; also called anti-TRBC2 antibody KFN; anti-TRBC2 clone KFN) VH: QVQLVQSGAEVKKPGASVKVSCKASGYKFTGFVMHWVRQAPGQGLEWMGFINPYNDDIQSNERFRGRVTMTRDTSISTAYMELSRLRSDDTAVYYCARGNGYNFDGAYRFFDFWGQGTMVTVSS VL: DIVMTQSPLSLPVTPGEPASISCRSSQRLVHSNGNTYLHWYLQKPGQSPRLLIYRVSNRFPGVPDRFSGSGSGTDFTLKISRVEAEDVGVYYCSQSTHVPYTFGQGTKLEIK |  |  |  | binding result [3]: no binding (tested: 5 µg/ml); Kd [4]: 479 nM; koff [4]: 0.0386 s⁻¹; kon [4]: 83000 M⁻¹ s⁻¹
3 | Mut15-MMAE (antibody, V domains shown, mc-vc-PAB-MMAE conjugated to reduced inter-chain cysteines; drug-antibody ratio 3.2, also called MMAE-conjugated Mut15; MMAE conjugated Mut15) VH: QVQLVQSGAEVKKPGASVKVSCKASGYKFTGFVMHWVRQAPGQGLEWMGFINPYNDDIQSNERFRGRVTMTRDTSISTAYMELSRLRSDDTAVYYCARGNGLMFDGAYRFFDFWGQGTMVTVSS VL: DIVMTQSPLSLPVTPGEPASISCRSSQRLVHSNGRTYLHWYLQKPGQSPRLLIYRVSNRFPGVPDRFSGSGSGTDFTLKISRVEAEDVGVYYCSQSTHVPYTFGQGTKLEIK |  |  |  | binding result [5]: no binding (tested: not printed on the sheet)
4 | Mut11-MMAE (antibody, V domains shown, mc-vc-PAB-MMAE conjugated to reduced inter-chain cysteines; drug-antibody ratio 3.1, also called MMAE-conjugated Mut11; MMAE conjugated Mut11) VH: QVQLVQSGAEVKKPGASVKVSCKASGYTFTGYVMHWVRQAPGQGLEWMGFINPYNDDIQSNERFRGRVTMTRDTSISTAYMELSRLRSDDTAVYYCARGAGYNFDAAYRFFDFWGQGTMVTVSS VL: DIVMTQSPLSLPVTPGEPASISCRSSQRLVHSNGNTYLHWYLQKPGQSPRLLIYRVSNRFPGVPDRFSGSGSGTDFTLKISRVEAEDVGVYYCSQSTHVPYTFGQGTKLEIK |  |  |  | binding result [6]: no binding (tested: not printed on the sheet)
5 | Mut13 (antibody, V domains shown, Variant of hJOVI-1; captured by anti-human IgG in SPR; also called VH T28K, Y32F, A100N; VL N35K) VH: QVQLVQSGAEVKKPGASVKVSCKASGYKFTGFVMHWVRQAPGQGLEWMGFINPYNDDIQSNERFRGRVTMTRDTSISTAYMELSRLRSDDTAVYYCARGNGYNFDGAYRFFDFWGQGTMVTVSS VL: DIVMTQSPLSLPVTPGEPASISCRSSQRLVHSNGKTYLHWYLQKPGQSPRLLIYRVSNRFPGVPDRFSGSGSGTDFTLKISRVEAEDVGVYYCSQSTHVPYTFGQGTKLEIK | 1000 nM | 0.108 s⁻¹ | 107000 M⁻¹ s⁻¹ | 
6 | Mut11 (antibody, V domains shown, Variant of hJOVI-1; IgG format; also called VH G106A; anti-TRBC1 antibody Mut11) VH: QVQLVQSGAEVKKPGASVKVSCKASGYTFTGYVMHWVRQAPGQGLEWMGFINPYNDDIQSNERFRGRVTMTRDTSISTAYMELSRLRSDDTAVYYCARGAGYNFDAAYRFFDFWGQGTMVTVSS VL: DIVMTQSPLSLPVTPGEPASISCRSSQRLVHSNGNTYLHWYLQKPGQSPRLLIYRVSNRFPGVPDRFSGSGSGTDFTLKISRVEAEDVGVYYCSQSTHVPYTFGQGTKLEIK | 203 nM | 0.0177 s⁻¹ | 87300 M⁻¹ s⁻¹ | binding result [7]: no binding
7 | Mut10 (antibody, V domains shown, Variant of hJOVI-1; captured by anti-human IgG in SPR; also called VH Y102M) VH: QVQLVQSGAEVKKPGASVKVSCKASGYTFTGYVMHWVRQAPGQGLEWMGFINPYNDDIQSNERFRGRVTMTRDTSISTAYMELSRLRSDDTAVYYCARGAGMNFDGAYRFFDFWGQGTMVTVSS VL: DIVMTQSPLSLPVTPGEPASISCRSSQRLVHSNGNTYLHWYLQKPGQSPRLLIYRVSNRFPGVPDRFSGSGSGTDFTLKISRVEAEDVGVYYCSQSTHVPYTFGQGTKLEIK | 90 nM | 0.00951 s⁻¹ | 106000 M⁻¹ s⁻¹ | 
8 | Mut9 (antibody, V domains shown, Variant of hJOVI-1; captured by anti-human IgG in SPR; also called VH G26P, T28K) VH: QVQLVQSGAEVKKPGASVKVSCKASPYKFTGYVMHWVRQAPGQGLEWMGFINPYNDDIQSNERFRGRVTMTRDTSISTAYMELSRLRSDDTAVYYCARGAGYNFDGAYRFFDFWGQGTMVTVSS VL: DIVMTQSPLSLPVTPGEPASISCRSSQRLVHSNGNTYLHWYLQKPGQSPRLLIYRVSNRFPGVPDRFSGSGSGTDFTLKISRVEAEDVGVYYCSQSTHVPYTFGQGTKLEIK | 28.9 nM | 0.00248 s⁻¹ | 85800 M⁻¹ s⁻¹ | 
9 | Mut12 (antibody, V domains shown, Variant of hJOVI-1; captured by anti-human IgG in SPR; also called VH T28K, Y32F, A100N, N103L; VL N35K) VH: QVQLVQSGAEVKKPGASVKVSCKASGYKFTGFVMHWVRQAPGQGLEWMGFINPYNDDIQSNERFRGRVTMTRDTSISTAYMELSRLRSDDTAVYYCARGNGYLFDGAYRFFDFWGQGTMVTVSS VL: DIVMTQSPLSLPVTPGEPASISCRSSQRLVHSNGKTYLHWYLQKPGQSPRLLIYRVSNRFPGVPDRFSGSGSGTDFTLKISRVEAEDVGVYYCSQSTHVPYTFGQGTKLEIK | 707 nM | 0.0613 s⁻¹ | 86800 M⁻¹ s⁻¹ | 
10 | Mut5 (antibody, V domains shown, Variant of hJOVI-1; captured by anti-human IgG in SPR; also called VH Y32F) VH: QVQLVQSGAEVKKPGASVKVSCKASGYTFTGFVMHWVRQAPGQGLEWMGFINPYNDDIQSNERFRGRVTMTRDTSISTAYMELSRLRSDDTAVYYCARGAGYNFDGAYRFFDFWGQGTMVTVSS VL: DIVMTQSPLSLPVTPGEPASISCRSSQRLVHSNGNTYLHWYLQKPGQSPRLLIYRVSNRFPGVPDRFSGSGSGTDFTLKISRVEAEDVGVYYCSQSTHVPYTFGQGTKLEIK | 426 nM | 0.0457 s⁻¹ | 107000 M⁻¹ s⁻¹ | 
11 | Mut4 (RFN) (antibody, V domains shown, Variant of hJOVI-1; captured by anti-human IgG in SPR) VH: QVQLVQSGAEVKKPGASVKVSCKASGYRFTGFVMHWVRQAPGQGLEWMGFINPYNDDIQSNERFRGRVTMTRDTSISTAYMELSRLRSDDTAVYYCARGNGYNFDGAYRFFDFWGQGTMVTVSS VL: DIVMTQSPLSLPVTPGEPASISCRSSQRLVHSNGNTYLHWYLQKPGQSPRLLIYRVSNRFPGVPDRFSGSGSGTDFTLKISRVEAEDVGVYYCSQSTHVPYTFGQGTKLEIK |  |  |  | Kd [4]: 582 nM; koff [4]: 0.045 s⁻¹; kon [4]: 77600 M⁻¹ s⁻¹
12 | Mut15 (antibody, V domains shown, Variant of hJOVI-1; IgG format; also called TRBC2 antibody Mut15; KFN variant Mut15) VH: QVQLVQSGAEVKKPGASVKVSCKASGYKFTGFVMHWVRQAPGQGLEWMGFINPYNDDIQSNERFRGRVTMTRDTSISTAYMELSRLRSDDTAVYYCARGNGLMFDGAYRFFDFWGQGTMVTVSS VL: DIVMTQSPLSLPVTPGEPASISCRSSQRLVHSNGRTYLHWYLQKPGQSPRLLIYRVSNRFPGVPDRFSGSGSGTDFTLKISRVEAEDVGVYYCSQSTHVPYTFGQGTKLEIK |  |  |  | binding result [5]: no binding (tested: not printed on the sheet); Kd [4]: 1900 nM; koff [4]: 0.0832 s⁻¹; kon [4]: 43800 M⁻¹ s⁻¹
13 | Mut8 (antibody, V domains shown, Variant of hJOVI-1; captured by anti-human IgG in SPR; also called VH G31S) VH: QVQLVQSGAEVKKPGASVKVSCKASGYTFTSYVMHWVRQAPGQGLEWMGFINPYNDDIQSNERFRGRVTMTRDTSISTAYMELSRLRSDDTAVYYCARGAGYNFDGAYRFFDFWGQGTMVTVSS VL: DIVMTQSPLSLPVTPGEPASISCRSSQRLVHSNGNTYLHWYLQKPGQSPRLLIYRVSNRFPGVPDRFSGSGSGTDFTLKISRVEAEDVGVYYCSQSTHVPYTFGQGTKLEIK | 7.69 nM | 0.000756 s⁻¹ | 98300 M⁻¹ s⁻¹ | 
14 | Mut14 (antibody, V domains shown, Variant of hJOVI-1; IgG format; also called VH T28K, Y32F, A100N, A107S) VH: QVQLVQSGAEVKKPGASVKVSCKASGYKFTGFVMHWVRQAPGQGLEWMGFINPYNDDIQSNERFRGRVTMTRDTSISTAYMELSRLRSDDTAVYYCARGNGYNFDGSYRFFDFWGQGTMVTVSS VL: DIVMTQSPLSLPVTPGEPASISCRSSQRLVHSNGNTYLHWYLQKPGQSPRLLIYRVSNRFPGVPDRFSGSGSGTDFTLKISRVEAEDVGVYYCSQSTHVPYTFGQGTKLEIK | 3590 nM | 0.323 s⁻¹ | 90000 M⁻¹ s⁻¹ | 

Reference: patent publication US20230109275A1 (AUTOLUS, published 2023)
